According to the supplement of paper PMC10567573:

B1: KLHL20 (parent)
chain: YQDMIYAVGGRDDTTELSSAERYN

Variants of: B1
Assay: protein stability index of a GFP-peptide fusion (GPS, HEK-293T) (PSI 1-6); higher = more stable
Details: c terminus: a fixed tail appended
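Note: lentivirally expressed fusions sorted by FACS into six bins by GFP to DsRed ratio, PSI derived from sequencing read proportions per bin multiplied by bin number.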

Protein stability index of substitutions, site by site:
D12: Y 1.9 | Q 2.09 | H 2.17 | S 2.32 | R 1.78 | V 1.53 | L 2.21 | W 1.8 | I 1.6 | N 2.43 | K 2.1 | E 2.74 | F 1.45 | T 1.58 | G 2.47 | P 2.34 | M 1.76
S19: P 2.66 | D 2.43 | Y 1.8 | I 2.01 | H 2.33 | K 2.34 | F 2.31 | C 2.16 | L 2.02 | W 1.99 | G 2.32 | A 2.87 | T 2.54 | V 1.99 | M 2.01 | R 2.53 | E 2.45 | Q 2.25 | N 2.11
L17: C 2.52 | W 2.45 | D 2.12 | H 2.32 | R 2.19 | E 2.58 | K 2.41 | Y 2.03 | A 2.44 | I 2.33 | N 2.38 | Q 2.24 | V 2 | P 2.49 | G 2.82 | S 2.06 | M 2.35 | T 2.89 | F 2.14
D13: G 2 | F 2.08 | V 2.49 | I 2.26 | Y 1.97 | R 1.75 | C 1.8 | K 2.23 | T 2.18 | M 1.34 | E 2.36 | Q 2.11 | P 2.03 | H 1.98 | N 2.01 | W 1.77 | L 2.06 | S 2.18 | A 1.66
T14: D 2.79 | E 2.78 | G 2.47 | F 2.18 | V 2.25 | M 2.01 | H 1.98 | P 2.89 | K 2.17 | R 2.13 | W 1.56 | N 2.36 | Q 2.35 | Y 2.1 | A 1.82 | L 2.48 | C 2.47 | I 2.09 | S 2.48
S18: C 2.07 | V 2.32 | P 2.1 | K 2.25 | W 2.27 | E 2.02 | A 2.03 | R 1.99 | G 2.5 | I 2.12 | N 2.66 | F 2.63 | D 2.43 | L 2.76 | Q 2.22 | T 2.1 | H 2.9 | M 2.07 | Y 2.22
A20: I 2.05 | H 2.74 | V 2.41 | N 2.82 | S 1.98 | K 2.03 | L 1.82 | T 2.21 | R 2.76 | G 2.29 | C 2.15 | M 2.38 | D 2.79 | P 2.05 | F 2.04 | E 3.06 | Q 2.91
T15: P 2.17 | Y 1.8 | S 2.46 | H 2.19 | C 2.49 | E 2.44 | N 2.33 | G 2.21 | L 2.58 | W 1.8 | I 2.09 | D 2.49 | M 1.92 | Q 3.13 | F 2.38 | V 2.08 | K 2.13 | A 2.4 | R 2.08
E16: T 2.17 | S 1.91 | P 2.05 | Q 2.36 | M 2.08 | W 2.23 | R 2.51 | A 1.95 | F 1.75 | I 2.07 | L 2.67 | G 2.28 | V 2.78 | K 1.85 | N 2.38 | D 2.34 | H 2.5 | Y 1.69 | C 1.5
